One experiment addresses T1, recombinant human CD32b (human, UniProt P31994 46-217).
T1 sequence: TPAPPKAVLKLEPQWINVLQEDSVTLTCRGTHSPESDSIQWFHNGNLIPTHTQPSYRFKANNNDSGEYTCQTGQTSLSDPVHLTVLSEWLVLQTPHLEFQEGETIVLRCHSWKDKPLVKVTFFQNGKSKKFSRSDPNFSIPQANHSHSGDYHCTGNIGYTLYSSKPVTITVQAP
As to the kind of experiment: ELISA on recombinant human CD32b, hybridoma screening. The source says: (§1) In order to develop a specific murine monoclonal antibody against Human CD32a using a peptide antigen […] (SEQ ID NO: 40), different criteria were taken into account when designing the peptide: (1) The peptide must not include residue # 167 submitted to a strong polymorphism; (2) The peptide should be specific for CD32a vs CD32b as much as possible to avoid cross-reactivity of anti-CD32a antibody with human CD32b. Thus, a first step was the selection, design and synthesis of a relevant peptide. In order to enhance the immune response, the peptide to carrier conjugation technique (KLH) was used. The peptide thus produced was used in the immunization of 5 mice with an optimized protocol of 45 to 74 days (4-6 injections). The immune response was monitored by bleeding and titration tests (ELISA against the peptide and recombinant human CD32a and CD32b in parallel). Following the results of these tests, the spleen cells from the best mouse were fused with a mouse myeloma cell line. The culture of the hybridomas obtained was carried out in selective medium before the screens for the selection at the polyclonal stage of specific hybridomas against the peptide in ELISA (10× 96-well plates). Further screening for clones positive against recombinant human CD32a and CD32b was performed in parallel. […]

The target of the next experiment is T2, recombinant human CD32a (human, UniProt P12318 34-217).
T2 sequence: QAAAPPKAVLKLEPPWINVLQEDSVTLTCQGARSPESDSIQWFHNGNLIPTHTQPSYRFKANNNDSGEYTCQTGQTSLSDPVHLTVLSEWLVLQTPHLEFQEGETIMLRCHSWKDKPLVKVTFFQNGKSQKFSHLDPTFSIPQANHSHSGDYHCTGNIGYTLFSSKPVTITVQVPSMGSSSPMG
As to the kind of experiment: ELISA on recombinant human CD32a, hybridoma screening.
Source text: as §1
(In general: In an ELISA, binding on a coated surface is turned into a signal by an enzyme label.)

B1: murine monoclonal anti-human CD32a antibody from hybridoma 8E2 (antibody, V domains shown)
VH: EVKLQESGPSLVQPGGSMNLSCVASGFTFSTHWMSWVRQSPEKGLEWIAEIRLKTDNYATHYAESVKGLFTISRDDSKSRLYLQMKSLRTEDSGIYYCTTHFAYWGQGTLV
VL: DVVMAQSPLSLPVSLGDQASISCRSSQSLVDSHGNTYLHWYLQKPGQSPKLLIYKVANRFSGVPDRFSGSGSGTDFTLKISRVEAEDLGVYFCSQSTHVPPVTFGAGTKLELK
notes: Tested as hybridoma supernatant in the ELISA screens
On to B1, for which the binding result with recombinant human CD32b is given as “no binding”; with recombinant human CD32a it was “binds”.

For the origin of these results see patent US20210405026A1 (CENTRE NATIONAL DE LA RECHERCHE SCIENTIFIQUE, published 2021).
